Data from the supplement of paper PMC12764529.
± gives the half width of the 95% confidence interval.

Experiments:
[1] = folding stability dG unfold from trypsin proteolysis; higher = more stable
How it was run: (§1)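 Only designs with AlphaFold2 dimer inter-PAE above 15 were retained; each was a mini-protein under 80 residues with no cysteine, in a PA-tagged cDNA display construct. After digestion with trypsin and chymotrypsin and sequencing, K50 was inferred by Bayesian fitting of counts, and unfolding free energy was derived per protease or combined against a sequence-predicted unfolded-state K50 and a shared folded-state K50.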

[2] = folding stability dG unfold from chymotrypsin proteolysis; higher = more stable
How it was run: as §1

[3] = folding stability dG unfold (combined trypsin and chymotrypsin); higher = more stable
How it was run: as §1

Row | Sequence | folding stability dG unfold [1] [kcal/mol] | folding stability dG unfold [2] [kcal/mol] | folding stability dG unfold [3] [kcal/mol]
1 | SAGGSAGGMTSDKPVLPALIRVYYPNEGREETIPVLLGEDMPLEEALRIARELAHPDAKAEILNSAGGSAGG [r6_440_TrMRF] | -0.183 ± 0.093 | 0.624 ± 0.053 | 0.395 ± 0.06
2 | SAGGSAGGMTTVTYDPSTGVTTVLTPKTDPTSDETSVVTTTVTLPTSPSGGGGTATTTTTTTASSAGGSAGG [r6_952_JUSTAS] | 0.74 ± 0.051 | 1.39 ± 0.024 | 1.18 ± 0.045
3 | SAGGSAGGMVFENLSEEEAKIIAKNIAENFKKKYPNVKIKVEAEVYKLPNPKVIVVIKLEIEEESAGGSAGG [r6_787_TrMRF] | 2.55 ± 0.086 | 3.54 ± 0.07 | 3.09 ± 0.15
4 | SAGGSAGGMVIPFILPGSEFEEEEAIERLLELIETARELNPDTPIIANPLILEVPPPPTETELGSAGGSAGG [r6_728_TrMRF] | 1.36 ± 0.099 | 0.538 ± 0.13 | 1.22 ± 0.28
5 | SAGGSAGGMVIVFDKKNKTIYIYDKKTGKKIEIKVKSIEEAKEAIKKLFPNKKVEIVEVKIFKPSAGGSAGG [r6_286_TrROS_Hall] | 1.43 ± 0.065 | 1.9 ± 0.09 | 1.76 ± 0.2
6 | SAGGSAGGMVKLKVYKIPESVPPELRALLEALVEGEGEVEVEPEEAEALLKLPGIEELEVEELESAGGSAGG [r6_381_TrMRF] | 0.912 ± 0.021 | 1.84 ± 0.059 | 1.59 ± 0.077
7 | SAGGSAGGMVLVLRFPLGEPALIALYDPETGEVHVYDPGTRELLGTFPLPIEDFLELGAEAEPVSAGGSAGG [r6_831_TrMRF] | 0.698 ± 0.051 | 2.2 ± 0.094 | 1.84 ± 0.12
8 | SAGGSAGGMVTFTVEYESDPALLEKLKEELPGVEILEVKREGPKKTITITIKVPSEEKAKKFLSSAGGSAGG [r6_334_JUSTAS] | 0.704 ± 0.086 | 1.16 ± 0.11 | 1 ± 0.12
9 | SAGGSAGGMVTVPVPKDKPLNPVATVKLPDGSTIPAGPVAVDLEKGTATLEVPEPAEVIVEVNPSAGGSAGG [r6_180_JUSTAS] | 0.0542 ± 0.08 | 1.36 ± 0.023 | 1.01 ± 0.037
10 | SAGGSAGGNKIWIPITITFMVPVRKDPDGKPKLSPEDPDRWKPVEFEIPIEIDPDPDNGKIKIWSAGGSAGG [r6_537_TrROS] | 1.5 ± 0.042 | 0.701 ± 0.25 | 1.26 ± 0.24
11 | SAGGSAGGNKPIMVRIKIWHDNGKTRRFFVQIPEGFDDPSELASELAKEFNKQYPNYRIEVEPFSAGGSAGG [r6_132_TrROS] | 2.55 ± 0.052 | 2.86 ± 0.03 | 2.78 ± 0.13
12 | SAGGSAGGNKSYTVIIRFPMKRKEDPDGEDKKPRPVTIEYTVKSPEDANELKNKLKDNGAEIVPSAGGSAGG [r6_141_TrROS] | 0.263 ± 0.15 | 0.698 ± 0.12 | 0.531 ± 0.12
13 | SAGGSAGGNMIPVKARMKWPDGKEFPFEIMVQYQPDGQMQIEIQNPGDGETVTFPNMKLIDVEISAGGSAGG [r6_255_TrROS] | -0.656 ± 0.26 | 0.828 ± 0.021 | 0.469 ± 0.06
14 | SAGGSAGGNTITVFMPYSQARELAEELRDEGITVDIQPYPDWMFITVEIKVPKIDPEDNPDNKDSAGGSAGG [r6_392_TrROS] | 1.43 ± 0.047 | 1.3 ± 0.074 | 1.35 ± 0.089
15 | SAGGSAGGPEIDLKEVRVFYPPGGERLVLVEVRDDVPLEQVRDWVLERGGEFYRELPNQILVRGSAGGSAGG [r6_543_TrMRF] | 0.0648 ± 0.21 | -0.179 ± 0.34 | -0.00273 ± 0.18
16 | SAGGSAGGPEITIIIGNAGPIEVALKTAKEIKKILEEKGYPNVKIPILIIPFGSPEKLKEALGGSAGGSAGG [r6_476_TrMRF] | 0.0997 ± 0.1 | -0.0243 ± 0.32 | 0.383 ± 0.29
17 | SAGGSAGGPEVKILKVDPENNTITLALPVDNEILLLEIKIEPDPENPNSFKATIELKVFPYNEASAGGSAGG [r6_371_TrMRF] | 2.33 ± 0.28 | 3.21 ± 0.096 | 2.8 ± 0.26
18 | SAGGSAGGPEYQMIPVKNVEIDEFDPNDGNVTIKFKGNGQEIKLPPDGIQSIEISPDQGWIYIRSAGGSAGG [r6_315_TrROS] | -0.318 ± 0.093 | -0.365 ± 0.22 | -0.273 ± 0.12
19 | SAGGSAGGPKEYYRVTVYVRNKDGEWEKVAEIEVPGMTEEELKELLAKLGLPPGAEVEIKIEKVSAGGSAGG [r6_88_TrROS_Hall] | 5.02 ± 0.49 | 4.92 ± 0.15 | 5.01 ± 0.21
20 | SAGGSAGGPLENDIPIPLTVPLPGPGTAELFLLPSTGEVLALVEGKPYLVSLEDLKDGVFRLGLSAGGSAGG [r6_939_TrMRF] | -0.577 ± 0.36 | 0.989 ± 0.17 | 0.576 ± 0.12
21 | SAGGSAGGPLRIEIEIKIEIFPFPDGWYLIRMTIKIKVYNPGEDGQPIAEYEITFYFIIPPGDFSAGGSAGG [r6_60_TrROS] | 4.25 ± 0.17 | 6.06 ± 0.15 | > 6

Row | Sequence | folding stability dG unfold [1] [kcal/mol] | folding stability dG unfold [2] [kcal/mol] | folding stability dG unfold [3] [kcal/mol]
22 | SAGGSAGGPLVVILPDPETGLFHVRVRYPDGTVESLGPFPSLEEALEALPSEGLGRVEVRPYLKSAGGSAGG [r6_307_TrMRF] | 1.05 ± 0.014 | 1.44 ± 0.038 | 1.28 ± 0.049
23 | SAGGSAGGPNMYMFKLEIKWYDPGKGKPVATRPITVMVPEDDLPEILKNLPPGFEIKNITIFPMSAGGSAGG [r6_777_TrROS] | 2.16 ± 0.058 | 2.5 ± 0.071 | 2.45 ± 0.11
24 | SAGGSAGGPNYFVRITIKMRKPNGKPIGEFPIWIPFKSKEQARSLADELAQMPGIEKVDIELVPSAGGSAGG [r6_475_TrROS] | 2.22 ± 0.025 | 2.68 ± 0.031 | 2.53 ± 0.051
25 | SAGGSAGGPPGEPPDVKVIPIEIEHERYNPDDGEMEVETIPFPIVIAPDGTIYHGDRPIPPDDISAGGSAGG [r6_515_TrROS] | 2.02 ± 0.24 | 1.41 ± 0.09 | 1.8 ± 0.41
26 | SAGGSAGGPPVEERELTLPDGTRLTITRYPDSYTVEVTLPDGTVETRTYPDVTPEEAVAAVKAASAGGSAGG [r6_459_JUSTAS] | 1.68 ± 0.043 | 1.927 ± 0.013 | 1.85 ± 0.051
27 | SAGGSAGGPVKIHVHVNPEEGYYMIEVRSGNEPRHIMIPMDKEEIKSFIENLPPGIEVEIHPMPSAGGSAGG [r6_401_TrROS] | 1.37 ± 0.067 | 1.19 ± 0.072 | 1.4 ± 0.14
28 | SAGGSAGGQEEEAEALAKEVEAPAREALPGTEVTVTVTVTRREDGSLEVDVTIEGDFALPAALLSAGGSAGG [r6_999_JUSTAS] | 0.813 ± 0.065 | 0.636 ± 0.067 | 0.783 ± 0.24
29 | SAGGSAGGRIEVDPEGATIKYEHNPNMMQIEIKYPGKKVQIMIPPDFMKQNPDMPIKDLVEWILSAGGSAGG [r6_369_TrROS] | 1.09 ± 0.081 | 0.94 ± 0.089 | 1.11 ± 0.23
30 | SAGGSAGGRKTRRLVLEVDDIPEGVSAEELTEEELRRLGLPPDARIRVVRRPDGRLLVVIEVRESAGGSAGG [r6_551_TrROS_Hall] | 1.64 ± 0.022 | 2.71 ± 0.0092 | 2.42 ± 0.051
31 | SAGGSAGGSAAAPPPPTITITVEVRTLPDGTVEITATATLPDGTTLTVTLRINADGSLTATSAGGSAGGSAG [r3_259_TrROS_Hall] | 1.91 ± 0.13 | 3.4 ± 0.17 | 3.17 ± 0.23
32 | SAGGSAGGSAAISIDLPPNSVLNISIPVTEPGGKPYTVKISVYSTPLPSNSYELNIKVTIVSAGGSAGGSAG [r3_347_JUSTAS] | 3.56 ± 0.15 | 4.66 ± 0.093 | 4.43 ± 0.12
33 | SAGGSAGGSAAITIPVPPGETVTIKIEIEMTVPPNQRNPDGQRMKPGQKVRMEVTFTFRVDGSAGGSAGGSA [r18_450_TrROS] | 3 ± 0.11 | 4.63 ± 0.058 | 4.24 ± 0.13
34 | SAGGSAGGSAAKIVDINISVRRSPENGYWKIPITIRIKGPNGKEQEIDLTMVFKIPPGQPLFSAGGSAGGSA [r18_95_TrROS] | 2.83 ± 0.072 | 2.88 ± 0.043 | 2.9 ± 0.15
35 | SAGGSAGGSAAKPIPFTITSVSVPTAPDGKKYAVVEISFPGSGAKAWAVYDIDDPYIKEAGSAGGSAGGSAG [r3_57_TrMRF] | 0.804 ± 0.095 | 1.71 ± 0.15 | 1.37 ± 0.1
36 | SAGGSAGGSAAPLEARLVSVSRDPAGNRLHAVYVVRDPSTGEQYLVTFSADPTSISVRVERVSAGGSAGGSA [r18_444_TrMRF] | 2.69 ± 0.12 | 4.48 ± 0.089 | 3.96 ± 0.071
37 | SAGGSAGGSAAPTNPVEITLKRPDGTPVKATITFYPDGVKVTVEDGDTTTTSWLSPEEITLSAGGSAGGSAG [r3_373_JUSTAS] | 2.09 ± 0.037 | 1.722 ± 0.015 | 1.89 ± 0.03
38 | SAGGSAGGSAAPVPPDRTLTVYRDPNTDKYTIRTPDGSVTVSPITPEELRAAGAPVVYLGPESAGGSAGGSA [r18_125_JUSTAS] | -1 ± 0.25 | -0.0867 ± 0.12 | -0.297 ± 0.073
39 | SAGGSAGGSAAPVVREIEIDLPYPDGSPLTVEKVTEEPAPGTVHYEIKLPDGTVITRTVPTFSAGGSAGGSA [r18_370_JUSTAS] | -0.92 ± 0.3 | -1.03 ± 0.39 | -0.797 ± 0.24
40 | SAGGSAGGSADAVVVEVTLPGGGKARAVFFPDGSVVIVVDFPDGRRAVIFLENNEIVVLPVDSAGGSAGGSA [r18_285_TrMRF] | 3.73 ± 0.2 | 3.15 ± 0.19 | 3.63 ± 0.12
41 | SAGGSAGGSADDEIVAEFTFTVPGTGVKKVKVKVFKDPNSDEYWVRVEGKWLPVSNPEEALESAGGSAGGSA [r18_67_TrMRF] | 1.62 ± 0.11 | 2.4 ± 0.066 | 2.1 ± 0.14
42 | SAGGSAGGSADELLDKLLNHKWLRDAMEKAPPGMEEIDIELPDGGKIRIRRTPNGGFRLEPSAGGSAGGSAG [r3_124_TrROS] | 1.904 ± 0.019 | 1.48 ± 0.081 | 1.76 ± 0.087
